Results from US20100215651A1 (GLENMARK PHARMACEUTICALS S A, published 2010).
Positions count from the first letter of the chain named. Names and notes keep the numbering of the source.

T1: human CD19 (human, UniProt P15391 20-556)
T1 construct: CD19 as expressed on Raji, NALM-6 and SU-DHL-6 cells; also called CD19 antigen; B-cell surface antigen B4
T1 sequence: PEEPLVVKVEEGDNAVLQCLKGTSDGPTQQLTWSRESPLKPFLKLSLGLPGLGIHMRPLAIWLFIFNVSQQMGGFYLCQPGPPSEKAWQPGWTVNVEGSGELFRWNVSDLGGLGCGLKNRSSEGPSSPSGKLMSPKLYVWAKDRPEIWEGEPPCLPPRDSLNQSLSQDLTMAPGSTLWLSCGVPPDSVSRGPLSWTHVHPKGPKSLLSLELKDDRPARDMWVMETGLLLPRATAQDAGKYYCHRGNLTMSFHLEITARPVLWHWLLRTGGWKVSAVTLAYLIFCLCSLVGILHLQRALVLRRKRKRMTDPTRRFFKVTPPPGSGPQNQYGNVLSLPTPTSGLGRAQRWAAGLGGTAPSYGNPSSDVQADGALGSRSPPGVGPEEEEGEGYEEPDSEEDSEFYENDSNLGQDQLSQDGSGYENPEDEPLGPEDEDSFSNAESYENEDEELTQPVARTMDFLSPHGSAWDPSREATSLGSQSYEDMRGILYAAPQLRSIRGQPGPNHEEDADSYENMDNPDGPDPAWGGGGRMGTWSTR

B1: VH16/VL43 (antibody, human IgG1, V domains shown)
VH: QVQLVQSGGGVVQPGRSLRLSCAASGVSLPDYGVSWVRQAPGKGLEWVAVIWGSETTYYNSALKSRFTISRDNSKNTLYLQMNSLRAEDTAVYYCARHYYYGGSYAMDYWGQGTLVTVSS
VL: DIVMTQTPSSLSASVGDRVTITCRASQDISKYLNWYQQKPGKAPKLLIYHTSRLHSGVPSRFSGSGSGTDFTLTISSLQPEDFATYYCQQGNTLPYTFGPGTKVDIKR
B2: VH16/VL43-V3Q/T7S (antibody, human IgG1, V domains shown)
VH: B1 VH
VL: B1 VL with V3Q, T7S
notes: substitutions in Kabat numbering
B3: VH16-Q6E/VL43-V3Q/T7S (antibody, human IgG1, name in Kabat numbering, V domains shown)
VH: B1 VH with Q6E
VL: B1 VL with V3Q, T7S
notes: as for B2
B4: VH16-R94K/VL43-V3Q/T7S (antibody, human IgG1)
heavy: not shown
VL: DIQMTQSPSSLSASVGDRVTITCRASQDISKYLNWYQQKPGKAPKLLIYHTSRLHSGVPSRFSGSGSGTDFTLTISSLQPEDFATYYCQQGNTLPYTFGPGTKVDIKRTVAA
notes: Full-length human IgG1/kappa; substitutions in Kabat numbering
B5: VH16 R94K VL43 N92A (antibody, human IgG1)
heavy: not shown
VL: B4 VL with Q3V, S7T, N92A
notes: as for B4
B6: VH16 R94K VL43 T93A (antibody, human IgG1, V domains shown)
VH: B1 VH with R97K
VL: B1 VL with T93A
notes: as for B4
B7: VH16 R94K VL43 T93V (antibody, human IgG1, V domains shown)
VH: B1 VH with R97K
VL: B1 VL with T93V
notes: Full-length human IgG1/kappa; substitutions in Kabat numbering; also called VK16 R94K VL43 T93V
B8: VH5VL40 (antibody, V domains shown)
VH: EVQLVESGGGLVKPGGSLRLSCAASGVSLPDYGVSWIRQAPGKGLEWVSVIWGSETTYYNSALKSRFTISRDNAKNSLYLQMDSLRVEDTAVYYCAGHYYYGGSYAMDYWGQGTLVTVSS
VL: B1 VL with A43V, K45N, D70E, P100G, D105E
B9: VH20/VL44 (antibody, human IgG1, V domains shown)
VH: B1 VH with V11L, R16G, A23V, A49S, S74A, T77S
VL: B1 VL with T7S, L11M, V15I, K45N, D70E, P100Q, V104L, D105E
B10: VH5VL39 (antibody, V domains shown)
VH: B8 VH
VL: B1 VL with T7S, S10T, D70E, E81D, P100Q, D105E
B11: VH16/VL44 (antibody, human IgG1, V domains shown)
VH: B1 VH
VL: B1 VL with T7S, L11M, V15I, K45N, D70E, P100Q, V104L, D105E
B12: VH2VL40 (antibody, V domains shown)
VH: B1 VH with Q1E, Q6E, R86K, A87T, A96T, R97T
VL: B1 VL with A43V, K45N, D70E, P100G, D105E
B13: VH16/VL39 (antibody, human IgG1, V domains shown)
VH: B1 VH
VL: B1 VL with T7S, S10T, D70E, E81D, P100Q, D105E
B14: VH20/VL40 (antibody, human IgG1, V domains shown)
VH: B1 VH with V11L, R16G, A23V, A49S, S74A, T77S
VL: B1 VL with A43V, K45N, D70E, P100G, D105E
B15: VH5VL43 (antibody, V domains shown)
VH: B8 VH
VL: B1 VL
B16: VH20/VL43 (antibody, human IgG1, V domains shown)
VH: B1 VH with V11L, R16G, A23V, A49S, S74A, T77S
VL: B1 VL
B17: VH20/VL39 (antibody, human IgG1, V domains shown)
VH: B1 VH with V11L, R16G, A23V, A49S, S74A, T77S
VL: B1 VL with T7S, S10T, D70E, E81D, P100Q, D105E
B18: VH16/VL40 (antibody, human IgG1, V domains shown)
VH: B1 VH
VL: B1 VL with A43V, K45N, D70E, P100G, D105E
B19: VH16 R94K VL43 F71H (antibody, human IgG1, V domains shown)
VH: B1 VH with R97K
VL: DIVMTQTPSSLSASVGDRVTITCRASQDISKYLNWYQQKPGKAPKLLIYHTSRLHSGVPSRFSGSGSGTDHTLTISSLQPEDFATYYCQQGNTLPYTFGPGTKVDIK
B20: VH16 R94K VL43 F71T (antibody, human IgG1, V domains shown)
VH: B1 VH with R97K
VL: B19 VL with H71T
B21: VH16 R94K VL43 F71S (antibody, human IgG1, V domains shown)
VH: B1 VH with R97K
VL: B19 VL with H71S
B22: VH16/VL43-P44V (antibody, human IgG1, V domains shown)
VH: B1 VH
VL: B1 VL with P44V
notes: as for B2
B23: VH16-R94K/VL43-F71Y (antibody, human IgG1, V domains shown)
VH: B1 VH with R97K
VL: B1 VL with F71Y
notes: as for B4
B24: VH16-R94K/VL43-P44V (antibody, human IgG1, V domains shown)
VH: B1 VH with R97K
VL: B1 VL with P44V
notes: as for B4
B25: VH16-Y32F-R94K-Y97F/VL43-V3Q-T7S-N92A (antibody, human IgG1, name in Kabat numbering, V domains shown)
VH: B1 VH with Y32F, R97K, Y100F
VL: B1 VL with V3Q, T7S, N92A
notes: as for B2
B26: VH16 R94K/Y97F/VL43 V3Q/T7S/Y32F/N92A (antibody, human IgG1, name in Kabat numbering, V domains shown)
VH: B1 VH with R97K, Y100F
VL: B1 VL with V3Q, T7S, Y32F, N92A
notes: as for B2

target: T1, human CD19; experiment: flow cytometry, Raji cells, MPF vs chimeric FMC63
Procedure: (§1) Binding of the CD19 humanized monoclonal antibodies by flow cytometry to Raji tumor cells (human Burkitt lymphoma, DSMZ ACC319), NALM-6 (human B cell precursor leukemia, DSMZ ACC128) and SU-DHL-6 (human B cell lymphoma, DSMZ ACC572) (all cell lines from DSMZ Braunschweig, Deutschland) was assessed. Cells were incubated with serial dilutions of each humanized monoclonal antibody. An irrelevant human IgG1 was used as a negative control. The cells were washed and detected by a phycoerythrin-labeled (PE) anti-human secondary antibody (eBioscience, CA, USA) and analyzed by flow cytometry. […] From MFI versus antibody concentration curves, Mid-Point Fluorescence (MPF) value for each anti-CD19 humanized antibody was calculated using the software GraphPad Prism 5 (CA, USA).

relative MPF (% of chimeric FMC63) | Binder
7.14% | B1
4.93% | B2
5.68% | B3
27.8% | B4

target: T1, human CD19; experiment: flow cytometry, Raji cells, MPF vs chimeric FMC63; remark: another data set of the same source
Procedure: as §1

relative MPF (% of chimeric FMC63) | Binder
7.14% | B1
25.9% | B5
34.1% | B6
17.4% | B7

target: T1, human CD19; experiment: flow cytometry on Raji cells, PE-labelled anti-human secondary antibody, MFI against antibody concentration
Procedure: These immunoglobulins were assessed for antigen-binding affinity by half-maximal binding assays on B-cell lymphoma cell-lines (FACS) and compared to a chimeric version of FMC63 (this was to standardized level of staining from the anti-human Fc PE-labeled detection-antibody, as described in Example 2).
as §1

binding result | Binder
binds | B9
binds | B11
binds | B13
binds | B14
binds | B16
binds | B17
binds | B18

Binder | binding result
B8 | no binding (tested: about 10 ug/ml (Log(ug/ml) about 1))
B10 | no binding (tested: about 10 ug/ml (Log(ug/ml) about 1))
B12 | no binding (tested: about 10 ug/ml (Log(ug/ml) about 1))
B15 | no binding (tested: about 10 ug/ml (Log(ug/ml) about 1))

target: T1, human CD19; experiment: binding to Raji cells

binding result | Binder
binds | B19
binds | B20
binds | B21

target: T1, human CD19; experiment: flow cytometry, NALM-6 cells, MPF vs chimeric FMC63
Procedure: as §1

relative MPF (% of chimeric FMC63) | Binder
3.29% | B1
6.05% | B22
23.5% | B23
32.9% | B24

target: T1, human CD19; experiment: flow cytometry, Raji cells, MPF vs chimeric FMC63; remark: another data set of the same source
Procedure: as §1

relative MPF (% of chimeric FMC63) | Binder
7.42% | B1
9.72% | B22
16.9% | B25
41.8% | B23
52.9% | B24

target: T1, human CD19; experiment: competition with 0.2 nM Eu3+-labelled chimeric FMC63 on Raji cells
Procedure: To that aim, 100 μl volumes of Raji cells in RPMI-1640 medium (Chemie Brunschwig AG, PAA, Basel, Switzerland) supplemented with 10% fetal bovine serum (FBS, Chemie Brunschwig AG, PAA, Basel, Switzerland), 2 mM ultraglutamine 1 (Lonza, Verviers, Belgium) and 1% penicillin/streptomycin (Chemie Brunschwig AG, PAA, Basel, Switzerland), prepared at concentration of 1×10⁶ cells/ml were seeded in a U-bottomed 96-well plate. […] The antibody dilutions were cooled down to 4° C. before 100 μl was taken and added on the Raji cells. […] Cells were incubated with the antibodies for 15 minutes on ice. After reaching equilibrium, the cells were centrifuged at 1300 RPM for 2 minutes and supernatant was discarded. Cell pellets were washed twice with 200 μl of cold binding buffer PBS-2.5% FBS-0.05% NaN₃, and resuspended into 100 μl of Delfia solution. Cell bound Eu³+-FMC63 was measured with time resolved fluorescence as described above. The amount of Eu³+-FMC63 (fmole) per well was determined and plotted versus the total amount of unlabelled antibody.

Ki | Binder
72.8 nM | B1
49.9 nM | B25

target: T1, human CD19; experiment: flow cytometry on Raji cells
Procedure: as §1

binding result | Binder
no binding | B26
